Among the data in ChEMBL document CHEMBL1134320, “Structure of protein tyrosine phosphatase 1B in complex with inhibitors bearing two phosphotyrosine mimetics” (J Med Chem, 2001) are Km values, retold here.

Substrate in this data set: O=P(O)(O)c1ccc(Cc2ccc(P(=O)(O)O)cc2)cc1
The data set can be described thus: Binding affinity towards the binding site of human protein tyrosine phosphatase 1B (PTP1B) enzyme expressed in Escherichia coli cells.

B1: Tyrosine-protein phosphatase non-receptor type 1 (Homo sapiens), P18031 (protein)
chain: MEMEKEFEQIDKSGSWAAIYQDIRHEASDFPCRVAKLPKNKNRNRYRDVSPFDHSRIKLHQEDNDYINASLIKMEEAQRSYILTQGPLPNTCGHFWEMVWEQKSRGVVMLNRVMEKGSLKCAQYWPQKEEKEMIFEDTNLKLTLISEDIKSYYTVRQLELENLTTQETREILHFHYTTWPDFGVPESPASFLNFLFKVRESGSLSPEHGPVVVHCSAGIGRSGTFCLADTCLLLMDKRKDPSSVDIKKVLLEMRKFRMGLIQTADQLRFSYLAVIEGAKFIMGDSSVQDQWKELSHEDLEPPPEHIPPPPRPPKRILEPHNGKCREFFPNHQWVKEETQEDKDCPIKEEKGSPLNAAPYGIESMSQDTEVRSRVVGGSLRGAQAASPAKGEPSLPEKDEDHALSYWKPFLVNMCVATVLTAGAYLCYRFLFNSNT
For B1, the Km is 16 µM.

The Km is the substrate concentration at which the rate is half of its maximum.
